Patent publication US20250257130A1 (NONA BIOSCIENCES SUZHOU, published 2025)
Residue numbers refer to the chain shown, from its start.

B1: PR005340 (antibody, human IgG1, V domains shown)
VH: EVQLVESGGGLVKPGGSLRLSCAASGFTFSDYYMSWIRQAPGKGLEWISYISSSGSTIHYADSVKGRFTISRDNAKNSLYLQMNSLRAEDTAIYYCARDIPSSSSDWVSLQFDYWGQGTLVTVSS
notes: HCAb (heavy chain-only, human IgG1 Fc), no light chain
B2: PR007417 (antibody, V domains shown)
VH: B1 VH with Y32F, I58R, H59Y, S109D
notes: bivalent form (HCAb) variant of PR005340, no light chain
B3: PR007424 (antibody, V domains shown)
VH: B1 VH with S52D, S56R, T57P, I58L, H59A, I100M
notes: as for B2
B4: PR005338 (antibody, human IgG1, V domains shown)
VH: B1 VH with S56T, A88T, I93V, I100A, S104N
notes: as for B1
B5: PR005344 (antibody, human IgG1, V domains shown)
VH: EVQLVESGGGLVKPGGSLRLSCAASGFTFSDYYMSWIRQAPGKGLEWISYISNSSSSISYANSVKGRFTVSRDNAKNSLYLQMNSLRAEDTALYYCARSPRGAFYEDFDYWGQGTLVTVSS
notes: as for B1
B6: PR005349 (antibody, human IgG1, V domains shown)
VH: B5 VH with G102S
notes: as for B1
B7: PR005352 (antibody, human IgG1, V domains shown)
VH: EVQLVESGGGLVKPGGSLRLSCAASGFTFSDYYMSWIRQAPGKGLEWISYISSSGGSIYYADSVKGRFTISRDNAKNSLYLQMNRLRAEDTALYYCARTPPSSNNWYEDFDYWGQGALVTVSS
notes: as for B1

biological target: T1, human ROR1 on cells (HEK293T-hROR1, PANC-1, A549) (human, UniProt Q01973 30-937); experiment: flow cytometry on PANC-1 cells, MFI (Median-APC) [middle panel, letter not given]
T1 construct: whole, on cells; one molecule for the three cell lines; also called huROR1; cell surface ROR1
T1 sequence (Q01973 30-937): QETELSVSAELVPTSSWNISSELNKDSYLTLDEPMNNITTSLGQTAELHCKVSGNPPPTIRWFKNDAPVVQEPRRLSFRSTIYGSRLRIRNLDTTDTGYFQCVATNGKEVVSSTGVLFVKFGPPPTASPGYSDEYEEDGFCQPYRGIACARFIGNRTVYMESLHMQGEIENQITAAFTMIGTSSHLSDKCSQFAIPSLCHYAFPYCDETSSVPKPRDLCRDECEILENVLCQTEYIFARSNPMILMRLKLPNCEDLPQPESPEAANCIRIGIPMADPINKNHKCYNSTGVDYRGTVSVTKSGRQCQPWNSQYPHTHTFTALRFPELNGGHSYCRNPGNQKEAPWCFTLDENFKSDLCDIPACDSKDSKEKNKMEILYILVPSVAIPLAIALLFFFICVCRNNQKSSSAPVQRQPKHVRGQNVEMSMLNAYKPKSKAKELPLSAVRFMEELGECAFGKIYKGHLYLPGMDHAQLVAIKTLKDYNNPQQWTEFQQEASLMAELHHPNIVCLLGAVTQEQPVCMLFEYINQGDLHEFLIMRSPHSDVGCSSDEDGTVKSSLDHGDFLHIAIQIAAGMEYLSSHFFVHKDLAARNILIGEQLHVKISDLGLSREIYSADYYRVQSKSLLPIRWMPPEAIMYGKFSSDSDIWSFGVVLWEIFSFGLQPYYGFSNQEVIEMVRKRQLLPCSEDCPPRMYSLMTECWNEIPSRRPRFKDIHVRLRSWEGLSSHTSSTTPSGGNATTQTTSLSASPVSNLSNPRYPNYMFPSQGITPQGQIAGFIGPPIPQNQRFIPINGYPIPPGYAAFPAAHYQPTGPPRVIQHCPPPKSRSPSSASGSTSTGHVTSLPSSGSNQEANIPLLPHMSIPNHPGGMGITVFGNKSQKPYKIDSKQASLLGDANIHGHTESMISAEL

EC50 (read off the curve) [nM]	Binder
~2	B1
~0.8	B2

biological target: T2, Human ROR1-ECD-his (Acro Biosystems RO1-H522y) (human, UniProt Q01973 30-406); experiment: BLI in-tandem, row = 1st Ab; competitor (2nd Ab): PR005340
T2 construct: extracellular domain; bought protein; also called hROR1-ECD-his; hu-ROR1-ECD-his
T2 sequence (Q01973 30-406): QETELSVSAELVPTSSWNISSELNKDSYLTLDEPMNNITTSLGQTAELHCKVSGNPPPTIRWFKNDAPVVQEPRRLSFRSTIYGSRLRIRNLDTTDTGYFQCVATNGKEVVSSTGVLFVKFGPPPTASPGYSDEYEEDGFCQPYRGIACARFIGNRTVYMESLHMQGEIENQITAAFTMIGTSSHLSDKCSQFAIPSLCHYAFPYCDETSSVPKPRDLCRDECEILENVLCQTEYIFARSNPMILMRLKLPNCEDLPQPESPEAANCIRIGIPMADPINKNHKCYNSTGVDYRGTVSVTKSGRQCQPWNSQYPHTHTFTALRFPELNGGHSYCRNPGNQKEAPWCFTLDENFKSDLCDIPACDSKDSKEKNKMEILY
From the text: (§1) To determine if anti-ROR1 antibodies bind to human ROR1 on different or approximate binding epitopes, the ForteBio Octet® RED96e platform was used to perform epitope competition experiments on the anti-ROR1 antibodies. Human ROR1 protein (Acrobiosystems, #RO1-H522y) was biotinylated and then captured onto SA biosensors (ForteBio, #18-5020) to reach loading level of 0.3-0.4 nm. The in-tandem competition assay format was applied and it contains two association steps. Firstly, the antigen-loaded biosensors bind to each antibody (a.k.a, First antibody, 1st Ab) with a saturating concentration of 200 nM for 180 seconds to reach equilibrium and then secondly bind to the competing antibodies (a.k.a, Second antibody, 2nd Ab) of 200 nM for 180 seconds. The second binding signals were recorded as the 100% signal of each antibody when the first antibodies were replaced by kinetics buffer. All the binding data were analyzed using ForteBio Data Analysis 11.0 software. The inhibition rate is calculated by the following formula: […]

Inhibition (%)	Binder
109	B1
111	B3
116	B2
108	B4

biological target: T2, Human ROR1-ECD-his (Acro Biosystems …); experiment: BLI in-tandem, row = 1st Ab; competitor (2nd Ab): PR007417
From the text: as §1

Inhibition (%)	Binder
109	B1
111	B3
113	B2
108	B4

biological target: T1, human ROR1 on cells (HEK293T-hROR1, …); experiment: flow cytometry on PANC-1 cells, MFI (Median-APC) [bottom panel, letter not given]

EC50 (read off the curve) [nM]	Binder
~2	B1
~0.6	B3

biological target: T3, cynomolgus ROR1 on CHO-K1-cynoROR1 cells (cynomolgus monkey, UniProt A0A2K5WTX7 30-937); experiment: flow cytometry on CHOK1-cynoROR1 cells, MFI (APC-A Median) [middle panel, letter not given]
T3 construct: whole, on cells
Method: (§2) Binding of recombinant anti-ROR1 antibodies to human or cynomolgus ROR1-overexpressing cells was tested by flow cytometry. In this example, ROR1-expressing cell lines are HEK293T cell lines that had been transfected to express human ROR1 on the surface (HEK293T-hu ROR1, KYINNO BIOTECHNOLOGY CO., LTD, Catalog #KC-1018), CHO-K1 cell lines that had been transfected to express cynomolgus ROR1 (CHOK1-cyno ROR1), PANC-1 (ATCC, catalog: CRL-1469) or A549 cell lines (Shanghai Institute of Biochemistry and Cell Biology, Chinese Academy of Sciences).
(§3) In brief, anti-ROR1 antibodies were serially diluted in staining buffer (PBS containing 2% FBS). Antibody solution was incubated with 1×10⁵ cells at 4° C. for 1 hour. […] After 1-hour incubation at 4° C., cells were washed twice with staining buffer and subjected to flow cytometry. PR000374 (Bench marker 1) and non-relevant IgG isotype control (Crownbio) were used as positive and negative controls, respectively.

EC50 (read off the curve) [nM]	Binder
~10	B5
~8	B4

biological target: T3, cynomolgus ROR1 on CHO-K1-cynoROR1 cells; experiment: flow cytometry, CHO-K1-cynoROR1 cells

Max	Binder
30700	B5
36400	B1
33300	B4

biological target: T1, human ROR1 on cells (HEK293T-hROR1, …); experiment: flow cytometry, PANC-1 cells
In short: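 Anti-ROR1 antibodies, serially diluted in PBS with 2% FBS, were incubated with 1×10⁵ PANC-1 cells for 1 hour at 4° C. A further 1-hour incubation at 4° C followed, then two washes and flow cytometry. A benchmark anti-ROR1 antibody and an isotype IgG served as positive and negative controls.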

TOP	Binder
84900	B1
70800	B3
83800	B2

biological target: T4, hu-ROR2-ECD-his (Acrobiosystems RO2-H52E5) (human, UniProt Q01974 34-403); experiment: BLI, antibody on AHC sensor, ROR2-His in solution
T4 construct: extracellular domain; bought protein; also called Human ROR2 his-tagged protein; Human ROR2, His Tag
T4 sequence (Q01974 34-403): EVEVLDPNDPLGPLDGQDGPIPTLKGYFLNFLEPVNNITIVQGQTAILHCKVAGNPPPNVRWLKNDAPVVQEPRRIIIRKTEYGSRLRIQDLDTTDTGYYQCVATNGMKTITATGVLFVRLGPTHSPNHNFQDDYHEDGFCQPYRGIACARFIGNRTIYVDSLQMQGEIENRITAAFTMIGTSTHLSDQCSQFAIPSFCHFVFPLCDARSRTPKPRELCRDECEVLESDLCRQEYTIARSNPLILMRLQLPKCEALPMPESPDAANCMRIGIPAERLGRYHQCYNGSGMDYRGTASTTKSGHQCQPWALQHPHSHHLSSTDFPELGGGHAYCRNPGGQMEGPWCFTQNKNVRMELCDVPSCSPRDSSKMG
Method: In the example, binding kinetics of anti-ROR1 antibodies to soluble ROR2 protein were analyzed by using Bio-Layer Interferometry (BLI) analysis on Fortebio Octet Red384 instrument (Fortebio). […] The captured biosensors were then dipped in wells containing 2-fold serial dilutions of antigen proteins to detect association signals, followed by dissociation steps in wells containing 1× kinetic buffer. Human ROR2 his-tagged protein (Acrobiosystems, #RO2-H52E5) was diluted from 600 nM to 37.5 nM; the association phase was 180 seconds, and the dissociation phase was 180 seconds. The sensorgrams were recorded and the reference signals were subtracted before curve fitting using ForteBio Data Analysis 11.0 software. Association rates (kₒₙ) and dissociation rates (kdis) were calculated using a simple one-to-one Langmuir binding model. The equilibrium dissociation constant (KD) was calculated as the ratio of kdis/kₒₙ.

binding result	Binder
no binding (tested: 37.5-600 nM)	B1
no binding (tested: 37.5-600 nM)	B3
no binding (tested: 37.5-600 nM)	B2
no binding (tested: 37.5-600 nM)	B4

biological target: T1, human ROR1 on cells (HEK293T-hROR1, …); experiment: flow cytometry, PANC-1 cells; remark: another data set of the same source
Method: as §3

Max	Binder
12400	B5
27100	B6
17500	B1
12700	B4
23300	B7

biological target: T1, human ROR1 on cells (HEK293T-hROR1, …); experiment: flow cytometry on PANC-1 cells, MFI (Median-APC) [top panel]

EC50 (read off the curve) [nM]	Binder
~3	B1

biological target: T2, Human ROR1-ECD-his (Acro Biosystems …); experiment: BLI in-tandem, row = 1st Ab; competitor (2nd Ab): PR000374
From the text: as §1

Inhibition (%)	Binder
-0.17	B1
-0.73	B3
10.2	B2
-3.02	B4

biological target: T2, Human ROR1-ECD-his (Acro Biosystems …); experiment: BLI in-tandem, row = 1st Ab; competitor (2nd Ab): PR005338
From the text: as §1

Inhibition (%)	Binder
106	B1
108	B3
114	B2
104	B4

biological target: T1, human ROR1 on cells (HEK293T-hROR1, …); experiment: flow cytometry on PANC-1 cells, MFI (FITC-A Median) [continued) C]
Method: as §2, §3

EC50 (read off the curve) [nM]	Binder
~10	B6
~9	B7

biological target: T2, Human ROR1-ECD-his (Acro Biosystems …); experiment: BLI, antibody on AHC sensor, ROR1-His 5-80 nM in solution
Method: The captured biosensors were then dipped in wells containing 2-fold serial dilutions of antigen proteins to detect association signals, followed by dissociation steps in wells containing 1× kinetic buffer. Human ROR1 hits-tagged protein (Acrobiosystems, #RO1-H522y) was diluted from 80 nM to 5 nM; the association phase was 180 seconds, and the dissociation phase was 600 seconds. The sensorgrams were recorded and the reference signals were subtracted before curve fitting using ForteBio Data Analysis 11.0 software. Association rates (kₒₙ) and dissociation rates (kdis) were calculated using a simple one-to-one Langmuir binding model. The equilibrium dissociation constant (KD) was calculated as the ratio of kdis/kₒₙ.

Kd [nM]	koff [s⁻¹]	kon [M⁻¹ s⁻¹]	Binder
1.2	0.000171	143000	B1
1.01	0.000284	281000	B3
0.18	4.86e-05	271000	B2
2.4	0.000316	132000	B4

biological target: T1, human ROR1 on cells (HEK293T-hROR1, …); experiment: flow cytometry on PANC-1 cells, MFI (APC-A Median)
Method: as §2, §3

EC50 (read off the curve) [nM]	Binder
~2	B1

biological target: T3, cynomolgus ROR1 on CHO-K1-cynoROR1 cells; experiment: flow cytometry on CHOK1-cynoROR1 cells, MFI (APC-A Median) [top panel]
Method: as §2, §3

EC50 (read off the curve) [nM]	Binder
~3	B1

biological target: T2, Human ROR1-ECD-his (Acro Biosystems …); experiment: BLI in-tandem, row = 1st Ab; competitor (2nd Ab): PR007424
From the text: as §1

Inhibition (%)	Binder
106	B1
107	B3
111	B2
102	B4

biological target: T1, human ROR1 on cells (HEK293T-hROR1, …); experiment: flow cytometry on PANC-1 cells, MFI (FITC-A Median)
Method: as §2, §3

EC50 (read off the curve) [nM]	Binder
~20	B5
~7	B4
